Assay results: patent US6613506B1, “Compositions and methods for inhibiting human immunodeficiency virus infection by down-regulating human cellular genes” (Subsidiary No. 3, Inc., priority 2000, dated 2003)

B1: CF-335: GSE, SEQ ID NO:35, antisense; protein phosphatase 2A gene (nucleic acid, listed as Homo sapiens)
antisense: GGTAAGGGTAGGGCACTTTTAATTTAAATGACTTCTTGCACCATCTTGCCTAATGGACTAGATTGGACTGTATCAACATTGATTTACTC
modifications: chemistry not fully specified
notes: protein phosphatase 2A gene
B2: H1C-2F9: GSE, SEQ ID NO:103, antisense; ArgRS gene (nucleic acid, listed as Homo sapiens)
antisense: ATACTTTAATTTTAAATTTTCTTCTTGTAACTGCTCCAAATTCGGAGAAGCTCCTAAACAGCCACAGTTTTTCAACCGGTCAATTTCAGCAGTCAGAGATTTAATCTCTTCTTCCTGCTGCAGCAGCCGCGCGGAGCACTCAGACATCAGTACGTCCATCCTCCCATCAGCG
B3: CF-624: GSE, SEQ ID NO:57, sense; p18 protein gene (nucleic acid, listed as Homo sapiens)
sense: TGTTCTGAGAACTGACTTTCTCCCCATCCCCTTCCTAAATATCCAAAGACTGTACTGGCCAGTGTCATTTTATTTTTTCCCTCCTGACAAT
modifications: chemistry not fully specified
notes: p18 protein gene
B4: CF-42: GSE, SEQ ID NO:37, sense; squalene synthetase gene (nucleic acid, listed as Homo sapiens)
sense: TGGCTGGGACCTTTAGGAAAGTGAAATGCAGGTGAGAAGAACCTAAACATGAAAGGAAAGGGTGCCTCATCCCAGCAACCTGTCCTTGTGGGTGATGATCACTGTGCTGCTTGTGGCTCAT
modifications: chemistry not fully specified
notes: squalene synthetase gene
B5: CF-619: GSE, SEQ ID NO:53, sense; Arg/Abl interacting protein (ArgBP2A) gene (nucleic acid, listed as Homo sapiens)
sense: GTTCCACCTCCAGTCCCGCCGCTTCGACCAAGAGATCGGTCTTCAACAGAAAAGCATGACTGGGATCCTCCAGA
modifications: chemistry not fully specified
B6: CF-322: GSE, SEQ ID NO:31, sense; anti-proliferative factor (BTG-1) gene (nucleic acid, listed as Homo sapiens)
sense: CGACAGCTGCAGACCTTCAGCCAGAGCCTGCAGGAGCTGCTGGCAGAACATTATAAACATCACTGGTTCCCAGAAAA
B7: H1C-16A3: GSE, SEQ ID NO:101, antisense; human GNB2L1 gene (nucleic acid, listed as Homo sapiens)
antisense: AGGCGGAGAGGATCATGTCCGGGAACTGCGGGGTAGTAGCGATCTGGGTTACCCAGCCGTTGTGGCCCTTGAGGGTGCCACGAAGGGTCATCTGCTCA
B8: CF-547: GSE, SEQ ID NO:51, antisense; recepin endoprotease gene (nucleic acid, listed as Homo sapiens)
antisense: ACAGAAGGAGAGACCGAATACAAATTTGAATGGCAGAAAGGAGCCCCACGAGAAAAATATGCCAAAGATGACATGAACATCAGAGATCAGCCCTTTA
modifications: chemistry not fully specified
notes: recepin endoprotease gene
B9: H1C-11H9: GSE, SEQ ID NO:99, antisense; human SHIP gene (nucleic acid, listed as Homo sapiens)
antisense: GGAACTCCAGGTAGAATTTGGTCTGGGACTTGGTCTTCAATGTGGCATAGCACCTGAGAAACTCAAT
B10: H1C-16E3: GSE, SEQ ID NO:111, antisense; FYN gene (nucleic acid, listed as Homo sapiens)
antisense: TTTCTCGCTTGTATTCCTGAAGATGAGTTTGGCCCTGTGACTCTGAAGGGTCGGCTATTAACTGAGACATCCTCTGTCGGGTTGCCCCCCGTGTTATATTTCGCCATGAGGGACTTTACATCTGCCTTTCCATCCTACAAACATAGGGAACAAAAAATAGCTGAGAGACA
B11: CF-320: GSE, SEQ ID NO:27, sense; double-strand break DNA repair gene (nucleic acid, listed as Homo sapiens)
sense: GCCTGCACATGACGATATGGATGAGGATGATAATGTATCAATGGGTGGGCCTGATAGTCCTGATTCAGTGGATCCCGT
B12: H1C-23G2: GSE, SEQ ID NO:113, antisense; human CTSB gene (nucleic acid, listed as Homo sapiens)
antisense: GCCGGTGGCTCACATGGCCTGTCTGCACTGTAACCACAGGCTGGGATGTAGCCAGGACTTGGTCTCCTTGGAAGACAGGTCTGATGTTTGGCCAATCCAGTCCTTCAGACCCTGTCTGAAACTTGTA
B13: CF-579: GSE, SEQ ID NO:61, sense; glucosidase alpha II gene (nucleic acid, listed as Homo sapiens)
sense: AGTTGGTATCAATGGAGTGGGAGAGGTGAGGAGATCACAAGAGGAATTTGGAGCCCAGGGTCAGCCCTCTCATCCTGCCCAAATGTTGGCAGAATCTGGGTCTTAGACTAGCATAAGTGAAGTCTGGGGAGGGCCGAAC
B14: CF-630: GSE, SEQ ID NO:59, antisense; p40 protein gene (nucleic acid, listed as Homo sapiens)
antisense: GCTTAGAGTATGGAGAACATGGATGCAGAACACCAGACACCCCTTTCTCTCTCTTTGAAGGAATGGCTGGAACAATATATTTCCTGGCTGACCTGCTAGTCCCCACAAAAGCCAGGTTCG
modifications: chemistry not fully specified
notes: p40 protein gene
B15: H1C-6G5: GSE, SEQ ID NO:117, antisense; human glutaredoxin gene (nucleic acid, listed as Homo sapiens)
antisense: TTTAAAGGGACAGCTTCGAAGACATTTCCATCTGGTATACTTCACTAGTTAGCAATGCCCAGGAATGC
B16: CF-622: GSE, SEQ ID NO:87, antisense; Rox gene (nucleic acid, listed as Homo sapiens)
antisense: GGAAAAAAAAAAAAACTACAAAAACCCTAATTTTGTACATACTGTATTTTTACTATTGAACTGTATTCTAGTGGCTGTTCATGCTCCAAGACTTTAGTTACCGAGACATGAATACTATCCATG
modifications: chemistry not fully specified
notes: Rox gene
B17: H1C-37E11: GSE, SEQ ID NO:115, antisense; human cathepsin L gene (nucleic acid, listed as Homo sapiens)
antisense: GTCGACCTTCCTCTTTACCGTCCACCAGCTCACACAGTGGGGTAGCTGGCTGCTGAGGCAATTCCACAATGGTTTCTCT
B18: CF-50: GSE, SEQ ID NO:39, sense; squalene synthetase gene (nucleic acid, listed as Homo sapiens)
sense: AAGTGAAATGCAGGTGAGAAGAACCTAAACATGAAAGGAAAGGGTGCCTCATCCCAGCAACCTGTCCTTGTGGGTGATGATCACTGTGCTGCTTGTGGCTCATGGCAGAGCATTCAGTGCCAA
modifications: chemistry not fully specified
notes: squalene synthetase gene
B19: CF-287: GSE, SEQ ID NO:77, sense; Na+-D-glucose cotransport regulator gene (nucleic acid, listed as Homo sapiens)
sense: CAGGTTGTCTTTAAGATGTTCTTTTAGACAGCTGCACATTGTAGACCCTTTCACCTGCCCTACACCAAAGATGTACGATGCACTAGGAAACTGCTCATAGGATTTCTGTCAGCT

Tested on: HIV-1IIIB
Experiment: Selection of GSEs from HeLa cell library using productive infection of CEM-ss cells
Format: cell-based
Protocol: Additionally, a normalized RFE library made from HeLa cells was transferred into CEM-ss cells and the neo resistant population was infected with TCID50 of 3000/10^6 cells of HIV-1IIIB. This RFE library was represented by 50×10^6 independent recombinant clones. Four and seven days after infection, a purified anti-CD4 monoclonal antibody, L77 (available from Becton Dickinson), was added at 5 Φg/mL to prevent syncytia formation. Syncytia formation is thought to be prevented by blocking the interaction between gp120 expressed on the surface of an infected cell and CD4 on the surface of an uninfected cell. […] At 10-12 days after infection, CD4^+, p24^− cell population representing uninfected cells were sorted. Genomic DNA from the CD4^+, p24^− cells was purified and used for PCR amplification of inserts with the vector-derived primers. The amplified mixture was digested with EcoRI and BamHI and cloned back into the retroviral vector. The selection was repeated for additional rounds.
The selection of GSEs from HeLa cell library using productive infection of CEM-ss cells isolated […] additional nucleic acid molecules which have substantial sequence identity with other cellular genes.
The selection of GSEs from a HeLa cell library using productive infection of CEM-ss cells isolated 21 additional nucleic acid molecules which have substantial sequence identity with other cellular genes. […] The complement of SEQ ID NO:25 is represented by SEQ ID NO:26. […] The complement of SEQ ID NO:27 is represented by SEQ ID NO:28. […] The complement of SEQ ID NO:29 is represented by SEQ ID NO:30. […] The complement of SEQ ID NO:31 is represented by SEQ ID NO:32. […] The complement of SEQ ID NO:33 is represented by SEQ ID NO:34. […] The complement of SEQ ID NO:35 is represented by SEQ ID NO:36. […] The complement of SEQ ID NO:37 is represented by SEQ ID NO:38. […] The complement of SEQ ID NO:39 is represented by SEQ ID NO:40. […] The complement of SEQ ID NO:41 is represented by SEQ ID NO:42. […] The complement of SEQ ID NO:43 is represented by SEQ ID NO:44. […] The complement of SEQ ID NO:45 is represented by SEQ ID NO:46. […] The complement of SEQ ID NO:47 is represented by SEQ ID NO:48. […] The complement of SEQ ID NO:49 is represented by SEQ ID NO:50. […] The complement of SEQ ID NO:51 is represented by SEQ ID NO:52. […] The complement of SEQ ID NO:53 is represented by SEQ ID NO:54. […] The complement of SEQ ID NO:55 is represented by SEQ ID NO:56. […] The complement of SEQ ID NO:57 is represented by SEQ ID NO:58. […] The complement of SEQ ID NO:59 is represented by SEQ ID NO:60. […] The complement of SEQ ID NO:61 is represented by SEQ ID NO:62. […] The complement of SEQ ID NO:77 is represented by SEQ ID NO:78. […] The complement of SEQ ID NO:87 is represented by SEQ ID NO:88. […] The complement of SEQ ID NO:99 is represented by SEQ ID NO:100. […] The complement of SEQ ID NO:101 is represented by SEQ ID NO:102. […] The complement of SEQ ID NO:103 is represented by SEQ ID NO:104. […] The complement of SEQ ID NO:105 is represented by SEQ ID NO: 106. […] The complement of SEQ ID NO:107 is represented by SEQ ID NO:108. […] The complement of SEQ ID NO:109 is represented by SEQ ID NO:110. […] The complement of SEQ ID NO:111 is represented by SEQ ID NO:112. […] The complement of SEQ ID NO:113 is represented by SEQ ID NO:114. […] The complement of SEQ ID NO:115 is represented by SEQ ID NO:116. […] The complement of SEQ ID NO:117 is represented by SEQ ID NO:118.

Molecule | HIV-suppressive activity of the GSE and active orientation
B1 | interferes with HIV replication as an antisense molecule
B2 | interferes with HIV replication as an antisense molecule
B3 | interferes with HIV replication in a sense orientation
B4 | interferes with HIV replication in the sense orientation
B5 | interferes with HIV replication in the sense orientation
B6 | interferes with HIV replication in the sense orientation
B7 | interferes with HIV replication as an antisense molecule
B8 | interferes with HIV replication as an antisense molecule
B9 | interferes with HIV replication as an antisense molecule
B10 | interferes with HIV replication as an antisense molecule
B11 | interferes with HIV infection in the sense orientation
B12 | interferes with HIV replication as an antisense molecule
B13 | interferes with HIV replication in a sense orientation
B14 | interferes with HIV replication as an antisense molecule
B15 | interferes with HIV replication as an antisense molecule
B16 | interferes with HIV replication as an antisense molecule
B17 | interferes with HIV replication as an antisense molecule
B18 | exhibits its HIV-suppressive activities in the sense orientation
B19 | interferes with HIV replication in a sense orientation
